Assay results published in patent publication US11111484B2, “Streptococcus bacteriophage lysins for detection and treatment of gram positive bacteria” (priority 2011, dated 2021).
Entries after “also recorded” stand apart in the source; their conditions may differ.

Tests used:
S. suis ST11 = assay: ΔPlySs1 OD600 lysis, 1 hr, optimal buffering conditions; assay type: cell-based, Streptococcus suis
Method: (§1) Truncated PlySs1(ΔPlySs1) lysin activity was determined against different cell types. Given the above experiments, the following optimal buffering conditions were employed for all further in vitro experiments with ΔPlySs1: 20 mM phosphate buffer, pH=7.8, 2 mM EDTA. A range of lysin concentrations, from 6.5-130 μg/ml, were introduced to live S. suis cells in this buffer. Three strains were considered particularly relevant: 7711, the serotype 7 strain that encodes PlySs1; S735, the serotype 2 reference strain; and 7997, a highly virulent serotype 9 strain. In terms of bacterial viability, only the highest PlySs1-concentration (130 μg/ml) led to a >90% decrease in CFUs for 7711, S735, and 7997 after 1 hr treatment (TABLE 2). The lysin was also tested against actively-dividing cells in broth culture (strain 7711) (FIG. 20).
(§2) ΔPlySs1 was further tested against a panel of 19 other S. suis strains of diverse serotypes, as well as other species of Gram-positive bacteria. The same lysin concentrations were used as above. For each dosage, the observed lysis values after 1 hr are listed in TABLE 3 and TABLE 4, and the information is summarized graphically in FIG. 21.

S. suis ST1 = assay: as above; assay type: cell-based, Streptococcus suis
Method: as §1, §2

S. suis ST3 = assay: as above; assay type: cell-based, Streptococcus suis
Method: as §1, §2

S. suis 8076 (ST9) = assay: as above; assay type: cell-based, Streptococcus suis
Method: as §1, §2

S. suis ST5 = assay: as above; assay type: cell-based, Streptococcus suis
Method: as §1, §2

S. suis ST2 = assay: as above; assay type: cell-based, Streptococcus suis
Method: as §1, §2

S. suis ST14 = assay: as above; assay type: cell-based, Streptococcus suis
Method: as §1, §2

S. suis 10 (ST2) = assay: as above; assay type: cell-based, Streptococcus suis
Method: as §1, §2

S. suis ST13 = assay: as above; assay type: cell-based, Streptococcus suis
Method: as §1, §2

S. suis 6388 (ST1) = assay: as above; assay type: cell-based, Streptococcus suis
Method: as §1, §2

S. suis ST4 = assay: as above; assay type: cell-based, Streptococcus suis
Method: as §1, §2

S. suis ST6 = assay: as above; assay type: cell-based, Streptococcus suis
Method: as §1, §2

S. suis 7197 (ST7) = assay: as above; assay type: cell-based, Streptococcus suis
Method: as §1, §2

S. suis ST9 = assay: as above; assay type: cell-based, Streptococcus suis
Method: as §1, §2

S. suis 6112 (ST1) = assay: as above; assay type: cell-based, Streptococcus suis
Method: as §1, §2

S. suis ST7 = assay: as above; assay type: cell-based, Streptococcus suis
Method: as §1, §2

S. suis ST10 = assay: as above; assay type: cell-based, Streptococcus suis
Method: as §1, §2

S. rattus BHT = assay: as above; assay type: cell-based, Streptococcus rattus
S. suis strain 7711 = assay: ΔPlySs1 growth inhibition in BHI broth; assay type: cell-based, Streptococcus suis; conditions: overnight, 96-well plate
Method: The optical density of each sample was measured continuously overnight in 96-well plate format. Overall, bacterial growth was delayed in a dose-dependent manner. However, for enzyme-concentrations that were sufficient to induce lysis in buffered solutions (130 and 50 μg/ml), the effect was quite minimal here. […] For all of the treated samples, one will note that the final optical densities are actually higher than that of the untreated sample. This is an artifact of the accumulation of aggregated bacterial debris that occurred in the presence of lytic enzyme.
as §1

B1: ΔPlySs1: truncated PlySs1 lysin, SEQ ID NO:2, N-terminal 254 amino acids: only N-terminal enzymatic and central binding domains (protein, listed as Streptococcus suis)
chain: MTINLETSIRWMSDRVGKVSYSMDYRNGPNSYDCSSAVYYALMAGGAISAGWAVNTEYMHDWLIRNGYVLVAENKPFNAQRHDVCILGKRGYSSGAGGHVVIFVDNVNVIHCNYARNGISIDNYNQVHRGMYYYLYRPANQPSISNKSLDQLVKETLAGVHGNGDTRKASLGSQYEAVMAVINGKASASEKSDEELAREVLAGKHGAGEDRKRSLGPRYEPVQAKVNELLKAKEKPSETAKNEPQTVQFKEDGDL
1-hour treated/untreated OD600-ratio (S. suis ST11; 6.5 μg/ml): 0.64 | 1-hour treated/untreated OD600-ratio (S. suis ST11; 13 μg/ml): 0.47 | 1-hour treated/untreated OD600-ratio (S. suis ST11; 30 μg/ml): 0.32 | 1-hour treated/untreated OD600-ratio (S. suis ST11; 65 μg/ml): 0.19 | 1-hour treated/untreated OD600-ratio (S. suis ST11; 130 μg/ml): 0.07 | 1-hour treated/untreated OD600-ratio (S. suis ST1; 6.5 μg/ml): 0.80 | 1-hour treated/untreated OD600-ratio (S. suis ST1; 13 μg/ml): 0.34 | 1-hour treated/untreated OD600-ratio (S. suis ST1; 30 μg/ml): 0.36 | 1-hour treated/untreated OD600-ratio (S. suis ST1; 65 μg/ml): 0.19 | 1-hour treated/untreated OD600-ratio (S. suis ST1; 130 μg/ml): 0.06 | 1-hour treated/untreated OD600-ratio (S. suis ST3; 6.5 μg/ml): 0.81 | 1-hour treated/untreated OD600-ratio (S. suis ST3; 13 μg/ml): 0.71 | 1-hour treated/untreated OD600-ratio (S. suis ST3; 30 μg/ml): 0.48 | 1-hour treated/untreated OD600-ratio (S. suis ST3; 65 μg/ml): 0.32 | 1-hour treated/untreated OD600-ratio (S. suis ST3; 130 μg/ml): 0.16 | 1-hour treated/untreated OD600-ratio (S. suis 8076 (ST9); 6.5 μg/ml): 0.52 | 1-hour treated/untreated OD600-ratio (S. suis 8076 (ST9); 13 μg/ml): 0.40 | 1-hour treated/untreated OD600-ratio (S. suis 8076 (ST9); 30 μg/ml): 0.21 | 1-hour treated/untreated OD600-ratio (S. suis 8076 (ST9); 65 μg/ml): 0.14 | 1-hour treated/untreated OD600-ratio (S. suis 8076 (ST9); 130 μg/ml): 0.04 | 1-hour treated/untreated OD600-ratio (S. suis ST5; 6.5 μg/ml): 0.78 | 1-hour treated/untreated OD600-ratio (S. suis ST5; 13 μg/ml): 0.59 | 1-hour treated/untreated OD600-ratio (S. suis ST5; 30 μg/ml): 0.39 | 1-hour treated/untreated OD600-ratio (S. suis ST5; 65 μg/ml): 0.22 | 1-hour treated/untreated OD600-ratio (S. suis ST5; 130 μg/ml): 0.10 | 1-hour treated/untreated OD600-ratio (S. suis ST2; 6.5 μg/ml): 0.79 | 1-hour treated/untreated OD600-ratio (S. suis ST2; 13 μg/ml): 0.70 | 1-hour treated/untreated OD600-ratio (S. suis ST2; 30 μg/ml): 0.49 | 1-hour treated/untreated OD600-ratio (S. suis ST2; 65 μg/ml): 0.34 | 1-hour treated/untreated OD600-ratio (S. suis ST2; 130 μg/ml): 0.17 | 1-hour treated/untreated OD600-ratio (S. suis ST14; 6.5 μg/ml): 0.79 | 1-hour treated/untreated OD600-ratio (S. suis ST14; 13 μg/ml): 0.57 | 1-hour treated/untreated OD600-ratio (S. suis ST14; 30 μg/ml): 0.33 | 1-hour treated/untreated OD600-ratio (S. suis ST14; 65 μg/ml): 0.15 | 1-hour treated/untreated OD600-ratio (S. suis ST14; 130 μg/ml): 0.06 | 1-hour treated/untreated OD600-ratio (S. suis 10 (ST2); 6.5 μg/ml): 0.29 | 1-hour treated/untreated OD600-ratio (S. suis 10 (ST2); 13 μg/ml): 0.18 | 1-hour treated/untreated OD600-ratio (S. suis 10 (ST2); 30 μg/ml): 0.10 | 1-hour treated/untreated OD600-ratio (S. suis 10 (ST2); 65 μg/ml): 0.05 | 1-hour treated/untreated OD600-ratio (S. suis 10 (ST2); 130 μg/ml): 0.02 | 1-hour treated/untreated OD600-ratio (S. suis ST13; 6.5 μg/ml): 0.32 | 1-hour treated/untreated OD600-ratio (S. suis ST13; 13 μg/ml): 0.17 | 1-hour treated/untreated OD600-ratio (S. suis ST13; 30 μg/ml): 0.04 | 1-hour treated/untreated OD600-ratio (S. suis ST13; 65 μg/ml): 0.02 | 1-hour treated/untreated OD600-ratio (S. suis ST13; 130 μg/ml): 0.02 | 1-hour treated/untreated OD600-ratio (S. suis 6388 (ST1); 6.5 μg/ml): 0.15 | 1-hour treated/untreated OD600-ratio (S. suis 6388 (ST1); 13 μg/ml): 0.13 | 1-hour treated/untreated OD600-ratio (S. suis 6388 (ST1); 30 μg/ml): 0.06 | 1-hour treated/untreated OD600-ratio (S. suis 6388 (ST1); 65 μg/ml): 0.03 | 1-hour treated/untreated OD600-ratio (S. suis 6388 (ST1); 130 μg/ml): 0.02 | 1-hour treated/untreated OD600-ratio (S. suis ST4; 6.5 μg/ml): 0.63 | 1-hour treated/untreated OD600-ratio (S. suis ST4; 13 μg/ml): 0.47 | 1-hour treated/untreated OD600-ratio (S. suis ST4; 30 μg/ml): 0.32 | 1-hour treated/untreated OD600-ratio (S. suis ST4; 65 μg/ml): 0.22 | 1-hour treated/untreated OD600-ratio (S. suis ST4; 130 μg/ml): 0.12 | 1-hour treated/untreated OD600-ratio (S. suis ST6; 6.5 μg/ml): 0.76 | 1-hour treated/untreated OD600-ratio (S. suis ST6; 13 μg/ml): 0.56 | 1-hour treated/untreated OD600-ratio (S. suis ST6; 30 μg/ml): 0.40 | 1-hour treated/untreated OD600-ratio (S. suis ST6; 65 μg/ml): 0.21 | 1-hour treated/untreated OD600-ratio (S. suis ST6; 130 μg/ml): 0.06 | 1-hour treated/untreated OD600-ratio (S. suis 7197 (ST7); 6.5 μg/ml): 0.64 | 1-hour treated/untreated OD600-ratio (S. suis 7197 (ST7); 13 μg/ml): 0.49 | 1-hour treated/untreated OD600-ratio (S. suis 7197 (ST7); 30 μg/ml): 0.39 | 1-hour treated/untreated OD600-ratio (S. suis 7197 (ST7); 65 μg/ml): 0.16 | 1-hour treated/untreated OD600-ratio (S. suis 7197 (ST7); 130 μg/ml): 0.07 | 1-hour treated/untreated OD600-ratio (S. suis ST9; 6.5 μg/ml): 0.50 | 1-hour treated/untreated OD600-ratio (S. suis ST9; 13 μg/ml): 0.30 | 1-hour treated/untreated OD600-ratio (S. suis ST9; 30 μg/ml): 0.23 | 1-hour treated/untreated OD600-ratio (S. suis ST9; 65 μg/ml): 0.13 | 1-hour treated/untreated OD600-ratio (S. suis ST9; 130 μg/ml): 0.05 | 1-hour treated/untreated OD600-ratio (S. suis 6112 (ST1); 6.5 μg/ml): 0.14 | 1-hour treated/untreated OD600-ratio (S. suis 6112 (ST1); 13 μg/ml): 0.11 | 1-hour treated/untreated OD600-ratio (S. suis 6112 (ST1); 30 μg/ml): 0.06 | 1-hour treated/untreated OD600-ratio (S. suis 6112 (ST1); 65 μg/ml): 0.02 | 1-hour treated/untreated OD600-ratio (S. suis 6112 (ST1); 130 μg/ml): 0.01 | 1-hour treated/untreated OD600-ratio (S. suis ST7; 6.5 μg/ml): 0.65 | 1-hour treated/untreated OD600-ratio (S. suis ST7; 13 μg/ml): 0.47 | 1-hour treated/untreated OD600-ratio (S. suis ST7; 30 μg/ml): 0.34 | 1-hour treated/untreated OD600-ratio (S. suis ST7; 65 μg/ml): 0.22 | 1-hour treated/untreated OD600-ratio (S. suis ST7; 130 μg/ml): 0.11 | 1-hour treated/untreated OD600-ratio (S. suis ST10; 6.5 μg/ml): 0.85 | 1-hour treated/untreated OD600-ratio (S. suis ST10; 13 μg/ml): 0.72 | 1-hour treated/untreated OD600-ratio (S. suis ST10; 30 μg/ml): 0.55 | 1-hour treated/untreated OD600-ratio (S. suis ST10; 65 μg/ml): 0.44 | 1-hour treated/untreated OD600-ratio (S. suis ST10; 130 μg/ml): 0.28 | lysis value after 1 hr (treated/untreated OD600 ratio) (S. rattus BHT; 6.5 μg/ml): 0.82 | lysis value after 1 hr (treated/untreated OD600 ratio) (S. rattus BHT; 13 μg/ml): 0.84 | lysis value after 1 hr (treated/untreated OD600 ratio) (S. rattus BHT; 30 μg/ml): 0.82 | lysis value after 1 hr (treated/untreated OD600 ratio) (S. rattus BHT; 65 μg/ml): 0.83 | lysis value after 1 hr (treated/untreated OD600 ratio) (S. rattus BHT; 130 μg/ml): 0.79 | MIC / growth inhibition (S. suis strain 7711): could not inhibit S. suis growth outright; also recorded: a MIC could not be assigned
